Measurements published in paper PMC9482650, “Quantitative fragmentomics allow affinity mapping of interactomes” (Nature Communications, 2022).

Key:
Assay in all cases: holdup assay
Parameters in all cases: key: below the threshold = too weak to quantify, mostly under pKd 3.1 to 4
Conditions in all cases: plain residues with an end cap or a label only (N-terminal biotin on a linker: ado-ado)
MPP6, Q9NZW5 = target: T1, MPP6, Q9NZW5
T1 sequence (Q9NZW5 125-219, limits assumed, looked up): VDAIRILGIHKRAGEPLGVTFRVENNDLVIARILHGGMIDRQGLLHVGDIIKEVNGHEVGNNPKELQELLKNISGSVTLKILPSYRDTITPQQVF

RAPGEF6, Q8TEU7 = target: T2, RAPGEF6, Q8TEU7
T2 sequence (Q8TEU7 525-625, limits assumed, looked up): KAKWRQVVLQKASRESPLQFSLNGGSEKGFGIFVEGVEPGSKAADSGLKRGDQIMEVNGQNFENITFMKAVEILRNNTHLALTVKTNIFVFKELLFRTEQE

MAST1, Q9Y2H9 = target: MAST1, Q9Y2H9
GRIP1_3, Q9Y3R0 = target: T3, GRIP1_3, Q9Y3R0
T3 sequence (Q9Y3R0 247-346, limits assumed, looked up): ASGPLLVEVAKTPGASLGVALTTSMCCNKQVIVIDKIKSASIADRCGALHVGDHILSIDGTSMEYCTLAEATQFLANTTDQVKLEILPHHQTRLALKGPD

DLG4_1, P78352 = target: DLG4_1, P78352
MPDZ_5, O75970 = target: T4, MPDZ_5, O75970
T4 sequence (O75970 695-796, limits assumed, looked up): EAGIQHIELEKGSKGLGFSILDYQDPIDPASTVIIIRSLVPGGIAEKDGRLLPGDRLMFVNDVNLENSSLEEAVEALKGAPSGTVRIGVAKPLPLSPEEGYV

FRMPD2_2, Q68DX3 = target: FRMPD2_2, Q68DX3
DLG4_3, P78352 = target: DLG4_3, P78352
SIPA1L2, Q9P2F8 = target: T5, SIPA1L2, Q9P2F8
T5 sequence (Q9P2F8 945-1036, limits assumed, looked up): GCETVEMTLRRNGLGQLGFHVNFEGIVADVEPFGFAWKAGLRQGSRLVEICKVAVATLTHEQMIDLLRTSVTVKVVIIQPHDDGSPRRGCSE

HTRA4, P83105 = target: T6, HTRA4, P83105
T6 sequence (P83105 378-476, limits assumed, looked up): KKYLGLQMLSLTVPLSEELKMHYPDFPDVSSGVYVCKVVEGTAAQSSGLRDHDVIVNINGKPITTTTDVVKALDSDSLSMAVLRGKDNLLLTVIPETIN

PICK1, Q9NRD5 = target: PICK1, Q9NRD5
IL16_1, Q14005 = target: IL16_1, Q14005
DLG1_1, Q12959 = target: DLG1_1, Q12959
TIAM2, Q8IVF5 = target: T7, TIAM2, Q8IVF5
T7 sequence (Q8IVF5 885-986, limits assumed, looked up): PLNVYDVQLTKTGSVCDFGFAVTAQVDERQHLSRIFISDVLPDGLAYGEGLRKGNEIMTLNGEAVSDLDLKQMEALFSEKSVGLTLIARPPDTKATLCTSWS

LDB3, O75112 = target: LDB3, O75112
MAGI2_2, Q86UL8 = target: MAGI2_2, Q86UL8
LRRC7, Q96NW7 = target: T8, LRRC7, Q96NW7
T8 sequence (Q96NW7 1440-1537, limits assumed, looked up): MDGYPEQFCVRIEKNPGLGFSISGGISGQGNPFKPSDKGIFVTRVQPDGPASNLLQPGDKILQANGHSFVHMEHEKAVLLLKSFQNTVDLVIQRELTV

LNX2_3, Q8N448 = target: T9, LNX2_3, Q8N448
T9 sequence (Q8N448 463-564, limits assumed, looked up): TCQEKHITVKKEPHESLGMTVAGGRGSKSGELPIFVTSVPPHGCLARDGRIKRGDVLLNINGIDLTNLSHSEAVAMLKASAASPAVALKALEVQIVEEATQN

SNTB1, Q13884 = target: T10, SNTB1, Q13884
T10 sequence (Q13884 107-205, limits assumed, looked up): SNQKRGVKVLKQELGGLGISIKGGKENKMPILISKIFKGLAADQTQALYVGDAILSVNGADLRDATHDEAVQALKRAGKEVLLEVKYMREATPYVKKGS

MAGI2_3, Q86UL8 = target: MAGI2_3, Q86UL8
PDLIM1, O00151 = target: PDLIM1, O00151
GRIP2_5, Q9C0E4 = target: GRIP2_5, Q9C0E4
NHERF2_2, Q15599 = target: NHERF2_2, Q15599
APBA2_2, Q99767 = target: T11, APBA2_2, Q99767
T11 sequence (Q99767 654-744, limits assumed, looked up): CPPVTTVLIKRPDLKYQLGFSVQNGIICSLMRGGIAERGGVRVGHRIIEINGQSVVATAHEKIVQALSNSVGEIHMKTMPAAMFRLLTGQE

PTPN3, P26045 = target: PTPN3, P26045
FRMPD2_1, Q68DX3 = target: FRMPD2_1, Q68DX3
HTRA1, Q92743 = target: HTRA1, Q92743
Chain of HTRA1, Q92743 (Q92743 360-477): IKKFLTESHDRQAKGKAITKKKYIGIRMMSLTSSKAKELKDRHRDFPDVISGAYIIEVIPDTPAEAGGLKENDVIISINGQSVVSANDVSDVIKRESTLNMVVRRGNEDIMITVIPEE

Chain of MAGI2_3, Q86UL8 (Q86UL8 600-682): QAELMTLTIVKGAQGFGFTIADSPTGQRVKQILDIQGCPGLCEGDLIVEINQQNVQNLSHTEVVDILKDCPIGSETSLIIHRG
Chain of GRIP2_5, Q9C0E4 (Q9C0E4 544-642): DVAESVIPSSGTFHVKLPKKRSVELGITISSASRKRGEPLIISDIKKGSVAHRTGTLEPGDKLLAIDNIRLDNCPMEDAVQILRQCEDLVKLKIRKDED
Chain of LDB3, O75112 (O75112 1-94): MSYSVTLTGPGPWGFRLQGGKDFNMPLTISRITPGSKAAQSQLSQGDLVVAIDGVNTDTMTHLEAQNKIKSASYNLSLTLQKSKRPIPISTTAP
Chain of MAST1, Q9Y2H9 (Q9Y2H9 962-1065): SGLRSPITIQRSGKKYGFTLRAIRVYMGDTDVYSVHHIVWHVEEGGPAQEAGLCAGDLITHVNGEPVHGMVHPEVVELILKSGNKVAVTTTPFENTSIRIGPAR
Chain of IL16_1, Q14005 (Q14005 210-306): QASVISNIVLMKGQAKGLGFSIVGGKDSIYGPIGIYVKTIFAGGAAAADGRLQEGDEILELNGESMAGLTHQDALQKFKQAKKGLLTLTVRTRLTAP
Chain of PDLIM1, O00151 (O00151 1-87): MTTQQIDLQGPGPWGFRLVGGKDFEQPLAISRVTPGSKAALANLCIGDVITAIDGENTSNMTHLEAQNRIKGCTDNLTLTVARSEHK
Chain of PTPN3, P26045 (P26045 505-587): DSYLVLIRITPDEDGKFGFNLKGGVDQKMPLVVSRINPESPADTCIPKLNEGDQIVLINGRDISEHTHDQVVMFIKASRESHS
Chain of DLG4_3, P78352 (P78352 306-403): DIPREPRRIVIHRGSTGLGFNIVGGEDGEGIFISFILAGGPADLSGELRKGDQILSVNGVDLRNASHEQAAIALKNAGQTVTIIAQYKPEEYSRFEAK
Chain of MAGI2_2, Q86UL8 (Q86UL8 410-522): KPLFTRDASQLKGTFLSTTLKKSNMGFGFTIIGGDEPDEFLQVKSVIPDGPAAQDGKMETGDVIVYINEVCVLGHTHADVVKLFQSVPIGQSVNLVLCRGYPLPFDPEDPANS
Chain of FRMPD2_1, Q68DX3 (Q68DX3 770-861): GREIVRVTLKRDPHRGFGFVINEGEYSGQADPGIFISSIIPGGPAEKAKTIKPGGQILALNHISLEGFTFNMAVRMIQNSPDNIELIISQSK
Chain of DLG4_1, P78352 (P78352 62-152): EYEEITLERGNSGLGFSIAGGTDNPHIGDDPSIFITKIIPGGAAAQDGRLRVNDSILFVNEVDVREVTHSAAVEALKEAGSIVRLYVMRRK
Chain of NHERF2_2, Q15599 (Q15599 142-238): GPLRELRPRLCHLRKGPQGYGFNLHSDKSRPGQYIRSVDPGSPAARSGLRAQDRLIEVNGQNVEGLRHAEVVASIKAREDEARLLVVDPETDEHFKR
Chain of FRMPD2_2, Q68DX3 (Q68DX3 944-1038): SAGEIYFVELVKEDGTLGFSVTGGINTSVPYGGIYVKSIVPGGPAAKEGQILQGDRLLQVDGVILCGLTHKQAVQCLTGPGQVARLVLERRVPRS
Chain of PICK1, Q9NRD5 (Q9NRD5 17-115): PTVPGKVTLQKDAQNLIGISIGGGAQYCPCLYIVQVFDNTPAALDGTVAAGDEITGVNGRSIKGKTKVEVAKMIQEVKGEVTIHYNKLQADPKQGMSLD

Binder	pKd (RAPGEF6, Q8TEU7)	pKd (GRIP1_3, Q9Y3R0)	pKd (DLG4_1, P78352)	pKd (MPDZ_5, O75970)	pKd (FRMPD2_2, Q68DX3)	pKd (DLG4_3, P78352)	pKd (SIPA1L2, Q9P2F8)	pKd (HTRA4, P83105)	pKd (PICK1, Q9NRD5)	pKd (IL16_1, Q14005)	pKd (DLG1_1, Q12959)	pKd (LDB3, O75112)	pKd (MAGI2_2, Q86UL8)	pKd (LRRC7, Q96NW7)	pKd (LNX2_3, Q8N448)	pKd (SNTB1, Q13884)	pKd (MAGI2_3, Q86UL8)	pKd (PDLIM1, O00151)	pKd (GRIP2_5, Q9C0E4)	pKd (NHERF2_2, Q15599)	other results
EYRKDNKVAA [LSM14A, Q8ND56;Q8ND56-2]	below the threshold	below the threshold	below the threshold	below the threshold	below the threshold	below the threshold	below the threshold	below the threshold	below the threshold	below the threshold	below the threshold	below the threshold	below the threshold	below the threshold	below the threshold	below the threshold	below the threshold	below the threshold	below the threshold	below the threshold	pKd (MPP6, Q9NZW5): below the threshold; pKd (MAST1, Q9Y2H9): below the threshold; pKd (TIAM2, Q8IVF5): 4.1; pKd (APBA2_2, Q99767): below the threshold; pKd (PTPN3, P26045): 3.95
KSTTRSSSSC [NDE1, Q9NXR1;Q9NXR1-2]	below the threshold	below the threshold	below the threshold	below the threshold	below the threshold	below the threshold	below the threshold	below the threshold	below the threshold	below the threshold	below the threshold	below the threshold	below the threshold	below the threshold	below the threshold	below the threshold	below the threshold	below the threshold	below the threshold	below the threshold	pKd (FRMPD2_1, Q68DX3): below the threshold; pKd (HTRA1, Q92743): below the threshold; pKd (APBA2_2, Q99767): below the threshold
SKSLERATQL [COMMD3, Q9UBI1]	3.85	below the threshold	below the threshold	below the threshold	3.65	below the threshold	3.51	below the threshold	below the threshold	below the threshold	3.55	below the threshold	3.71	below the threshold	below the threshold	4.24	below the threshold	below the threshold	below the threshold	4.58	pKd (MPP6, Q9NZW5): below the threshold; pKd (MAST1, Q9Y2H9): 4.69; pKd (FRMPD2_1, Q68DX3): below the threshold; pKd (HTRA1, Q92743): 3.89; pKd (TIAM2, Q8IVF5): 3.88; pKd (APBA2_2, Q99767): below the threshold; pKd (PTPN3, P26045): 4.91
LRYARPADAL [PPP1R3G, B7ZBB8]	below the threshold	below the threshold	below the threshold	below the threshold	below the threshold	below the threshold	below the threshold	3.92	below the threshold	below the threshold	below the threshold	below the threshold	below the threshold	below the threshold	below the threshold	below the threshold	below the threshold	below the threshold	below the threshold	below the threshold	pKd (MPP6, Q9NZW5): below the threshold; pKd (MAST1, Q9Y2H9): 3.73; pKd (FRMPD2_1, Q68DX3): below the threshold; pKd (HTRA1, Q92743): 3.67; pKd (TIAM2, Q8IVF5): below the threshold; pKd (APBA2_2, Q99767): below the threshold; pKd (PTPN3, P26045): below the threshold
GDHLDRRVVL [VAC14, Q08AM6]	below the threshold	below the threshold	below the threshold	below the threshold	below the threshold	below the threshold	below the threshold	3.92	below the threshold	below the threshold	below the threshold	below the threshold	below the threshold	below the threshold	below the threshold	below the threshold	3.54	below the threshold	below the threshold	below the threshold	pKd (MPP6, Q9NZW5): 3.51; pKd (MAST1, Q9Y2H9): 4.17; pKd (FRMPD2_1, Q68DX3): 3.62; pKd (HTRA1, Q92743): 4.25; pKd (TIAM2, Q8IVF5): below the threshold; pKd (APBA2_2, Q99767): below the threshold; pKd (PTPN3, P26045): 3.92
